Laboratory results as given in the supplement of paper PMC6757056.
± gives the standard deviation of the averaged measurements.

B1: library; a variant is named by its letters at N, in order (parent)
chain: GCUGUCACCGGUGCUUGGUACGUUAUAUUCAGCCGGUCUGAUGAGUCUNNNNNNAGACGAAACAGC

Columns and labels:
(6R,S)-folinic acid [1] = variants of: B1; assay: normalized RNA/DNA level without ligand (relative to sTRSVctl = 100) (log10 (% of sTRSVctl)); HEK293T overexpressing SLC46A1; higher = less ribozyme self-cleavage, higher mRNA level; conditions: without (6R,S)-folinic acid; ligand present: no
Method in brief: (§1)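 Ribozyme switch library plasmids linked to reporters were introduced into HEK293T cells at 4 µg per 6-well well, with ligand, if any, added 1 h before. Total RNA was extracted with EDTA 72 h later, reverse-transcribed, amplified, barcoded and sequenced. RNA level was computed from RNA over DNA reads relative to a spiked-in non-cleaving sequence or the top sequences, then scaled and log-transformed. The top set was 25 sequences, values were ×100 and log10, and the cutoff was ≥100 DNA reads.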

(6R,S)-folinic acid [2] = variants of: B1; assay: normalized RNA/DNA level with ligand (relative to sTRSVctl = 100) (log10 (% of sTRSVctl)); HEK293T overexpressing SLC46A1; ligand concentration (+) RNA-Seq: 6 mM; higher = less ribozyme self-cleavage, higher mRNA level; conditions: with (6R,S)-folinic acid; ligand present: yes
Method in brief: as §1

| Variant | normalized RNA/DNA level without ligand (log10) ((6R,S)-folinic acid [1]) | normalized RNA/DNA level with ligand (log10) ((6R,S)-folinic acid [2]) |
| --- | --- | --- |
| AUUCAC | 2.04 ± 0.0098 | 1.994 ± 0.019 |
| AUUCAA | 1.9988 ± 0.0016 | 2.01 ± 0.029 |
| AUUCAU | 2 ± 0.026 | 2.0232 ± 0.0017 |
| UUUCCU | 2.0566 ± 0.0006 | 2.058 ± 0.018 |
| UUUCCA | 2.009 ± 0.0042 | 2.01 ± 0.027 |
| UUUCCC | 2.043 ± 0.0052 | 2.02 ± 0.075 |
| CUUCCA | 2.023 ± 0.014 | 2.02 ± 0.037 |
| CUUCCG | 2.05 ± 0.029 | 2.06 ± 0.046 |
| CUUCCU | 1.996 ± 0.0085 | 2.02 ± 0.059 |
| CUUCCC | 2.01 ± 0.03 | 2.002 ± 0.007 |
| GUUCAU | 2.019 ± 0.0083 | 2.02 ± 0.034 |
| GUUCAG | 1.963 ± 0.0042 | 2 ± 0.043 |
| AUUAUC | 2.062 ± 0.01 | 2.03 ± 0.022 |
| AUUAUG | 1.94 ± 0.021 | 2.02 ± 0.033 |
| AUUAUA | 1.9581 ± 0.0013 | 1.97 ± 0.025 |
| CUGGAG | 1.883 ± 0.01 | 1.99 ± 0.029 |
| CUGGAC | 1.9905 ± 0.0006 | 2 ± 0.038 |
| UUGUCG | 1.94 ± 0.032 | 2.03 ± 0.034 |
| UUGUCC | 2.008 ± 0.0064 | 2.045 ± 0.02 |
| UUGUCA | 1.976 ± 0.015 | 2.042 ± 0.0095 |
| UUGUCU | 2.053 ± 0.0052 | 2.09 ± 0.022 |
| AUGCCG | 1.979 ± 0.0032 | 2 ± 0.023 |
| AUGCCU | 2.011 ± 0.0046 | 2.015 ± 0.0068 |

| Variant | normalized RNA/DNA level without ligand (log10) ((6R,S)-folinic acid [1]) | normalized RNA/DNA level with ligand (log10) ((6R,S)-folinic acid [2]) |
| --- | --- | --- |
| AUGCCA | 2.011 ± 0.0049 | 2.011 ± 0.01 |
| AUGCCC | 2.037 ± 0.016 | 2.02 ± 0.041 |
| GUGGUC | 2.02 ± 0.023 | 2 ± 0.029 |
| GUGGUA | 1.913 ± 0.0048 | 1.97 ± 0.019 |
| CUGAUU | 2.015 ± 0.007 | 2.05 ± 0.052 |
| CUGAUG | 2.014 ± 0.013 | 2.013 ± 0.014 |
| AUUACG | 1.941 ± 0.005 | 2.026 ± 0.011 |
| AUUACC | 2.019 ± 0.0035 | 2 ± 0.025 |
| AUUACA | 1.992 ± 0.017 | 2.01 ± 0.059 |
| AUUACU | 2.042 ± 0.012 | 2.04 ± 0.031 |
| GUGUGG | 1.908 ± 0.0095 | 2.03 ± 0.048 |
| UUUCGA | 2.0498 ± 0.00034 | 2.04 ± 0.024 |
| UUGGGC | 2.036 ± 0.0078 | 2.037 ± 0.0067 |
| UUGGGA | 1.881 ± 0.0033 | 2.03 ± 0.039 |
| AUGCGC | 2.017 ± 0.0084 | 2.009 ± 0.018 |
| CUUAGA | 2.03 ± 0.01 | 2.04 ± 0.029 |
| CUUAGC | 2.008 ± 0.019 | 2.01 ± 0.08 |
| CUUAGG | 2.041 ± 0.018 | 2.052 ± 0.014 |
| CUUAGU | 2.01 ± 0.0085 | 2.014 ± 0.0092 |
| UUGUAC | 1.9902 ± 0.00038 | 2.02 ± 0.045 |
| UUGUAA | 1.943 ± 0.011 | 2.003 ± 0.016 |
| CUUCGC | 2.067 ± 0.018 | 2.072 ± 0.018 |
| CUUCGA | 2.053 ± 0.0024 | 2.06 ± 0.038 |

| Variant | normalized RNA/DNA level without ligand (log10) ((6R,S)-folinic acid [1]) | normalized RNA/DNA level with ligand (log10) ((6R,S)-folinic acid [2]) |
| --- | --- | --- |
| AUGGUC | 2.055 ± 0.0035 | 2.04 ± 0.029 |
| GUUACU | 2.03 ± 0.027 | 2.03 ± 0.037 |
| GUUACG | 1.988 ± 0.012 | 2.02 ± 0.034 |
| GUUACA | 2.009 ± 0.012 | 2.01 ± 0.053 |
| AUUCCC | 2.018 ± 0.019 | 1.99 ± 0.052 |
| AUUCCG | 1.997 ± 0.0068 | 2.037 ± 0.018 |
| AUUCCU | 2.044 ± 0.0048 | 2.047 ± 0.018 |
| AUUCCA | 2.009 ± 0.0091 | 2.02 ± 0.047 |
| UUGGUA | 1.92 ± 0.021 | 1.999 ± 0.014 |
| UUGGUC | 2.047 ± 0.0021 | 2.041 ± 0.003 |
| UUGGUU | 2.014 ± 0.0096 | 2.052 ± 0.019 |
| CUUAAG | 1.913 ± 0.0089 | 1.986 ± 0.0033 |
| CUUAAU | 1.989 ± 0.0044 | 2.001 ± 0.011 |
| CUUAAC | 1.9881 ± 0.0006 | 1.983 ± 0.0059 |
| CUUAAA | 1.9796 ± 8.1e-05 | 1.968 ± 0.017 |
| CUGCAC | 2.037 ± 0.0035 | 2.015 ± 0.014 |
| CUGCAA | 2.037 ± 0.02 | 2.05 ± 0.025 |
| CUGCAU | 1.9723 ± 0.001 | 1.99 ± 0.044 |
| AUUAGC | 1.987 ± 0.0093 | 2.021 ± 0.0097 |
| AUUAGU | 1.95 ± 0.028 | 2.01 ± 0.028 |
| GUGCUU | 2.037 ± 0.0067 | 2.039 ± 0.015 |
| GUGCUA | 1.994 ± 0.0059 | 1.98 ± 0.04 |
| GUGCUC | 2.05 ± 0.032 | 2.01 ± 0.045 |

| Variant | normalized RNA/DNA level without ligand (log10) ((6R,S)-folinic acid [1]) | normalized RNA/DNA level with ligand (log10) ((6R,S)-folinic acid [2]) |
| --- | --- | --- |
| AUGCAG | 1.92 ± 0.022 | 2 ± 0.032 |
| AUGCAU | 1.934 ± 0.011 | 2.006 ± 0.005 |
| AUGUGU | 1.83 ± 0.032 | 1.97 ± 0.047 |
| AUGUGA | 1.944 ± 0.014 | 2.014 ± 0.019 |
| AUGUGC | 1.97 ± 0.021 | 1.981 ± 0.018 |
| UUGCGC | 2.062 ± 0.007 | 2.079 ± 0.00078 |
| UUGCGU | 1.98 ± 0.031 | 2.03 ± 0.032 |
| UUGCGA | 1.97 ± 0.022 | 2.02 ± 0.055 |
| UUGCGG | 1.96 ± 0.02 | 2 ± 0.031 |
| AUGCUA | 2.021 ± 0.0056 | 2.01 ± 0.024 |
| AUGCUG | 1.986 ± 0.003 | 2 ± 0.017 |
| AUGCUC | 2.053 ± 0.0063 | 2.03 ± 0.053 |
| AUGCUU | 2.006 ± 0.018 | 2.037 ± 0.014 |
| AUGGAU | 1.889 ± 0.0038 | 2.01 ± 0.033 |
| CUGGGC | 2.059 ± 0.0035 | 2.03 ± 0.03 |
| CUGGGU | 2.025 ± 0.02 | 2.032 ± 0.017 |
| CUGGGG | 1.871 ± 0.005 | 2.007 ± 0.0051 |
| CUGUUG | 2.04 ± 0.035 | 2.03 ± 0.027 |
| CUGUUU | 2.022 ± 0.0036 | 2.06 ± 0.041 |
| CUGUUC | 2.049 ± 0.016 | 2.03 ± 0.024 |
| CUGUUA | 1.994 ± 0.0099 | 2.04 ± 0.03 |
| AUGGCU | 1.989 ± 0.011 | 2.02 ± 0.031 |
| AUGGCA | 1.9865 ± 2.8e-05 | 2 ± 0.046 |

| Variant | normalized RNA/DNA level without ligand (log10) ((6R,S)-folinic acid [1]) | normalized RNA/DNA level with ligand (log10) ((6R,S)-folinic acid [2]) |
| --- | --- | --- |
| AUGGCC | 2.063 ± 0.0035 | 2.04 ± 0.05 |
| UUGCAU | 1.975 ± 0.0029 | 2.01 ± 0.043 |
| UUGCAA | 1.96 ± 0.0066 | 1.987 ± 0.0035 |
| UUGCAC | 2.008 ± 0.015 | 2.02 ± 0.026 |
| UUUACA | 2.0168 ± 0.00066 | 2.029 ± 0.0067 |
| UUUACG | 1.859 ± 0.0091 | 1.98 ± 0.03 |
| CUGUCA | 2.033 ± 0.011 | 2.07 ± 0.039 |
| CUGUCC | 2.059 ± 0.0043 | 2.043 ± 0.017 |
| CUGUCU | 2.037 ± 0.0082 | 2.04 ± 0.034 |
| CUGUCG | 2 ± 0.031 | 2.06 ± 0.065 |
| GUGAUG | 1.908 ± 0.015 | 1.99 ± 0.035 |
| GUGAUU | 2.01 ± 0.024 | 2.02 ± 0.022 |
| GUGAUC | 2.03 ± 0.021 | 2.036 ± 0.02 |
| UUGUGA | 1.96 ± 0.0028 | 2.04 ± 0.031 |
| UUGUGC | 2.018 ± 0.0046 | 2.053 ± 0.02 |
| UUGUGU | 2.03 ± 0.011 | 2.05 ± 0.031 |
| UUGUGG | 1.888 ± 0.0042 | 2.06 ± 0.044 |
| CUGCUG | 2.044 ± 0.0052 | 2.03 ± 0.041 |
| CUGCUA | 2.02 ± 0.021 | 2.05 ± 0.031 |
| CUGCUU | 2.046 ± 0.013 | 2.04 ± 0.03 |
| CUGCUC | 2.11 ± 0.053 | 2.02 ± 0.034 |
| GUGGAU | 1.9394 ± 0.0013 | 2.01 ± 0.035 |
| GUGGAA | 1.915 ± 0.0022 | 2.01 ± 0.048 |
